From patent publication US20250290928A1, “METHOD, KIT AND DEVICE FOR DETECTING EXTRACELLULAR VESICLES” (priority 2022, published 2025)
*: point of attachment. 5FAM = O=C1OC2(c3ccc(O)cc3Oc3cc(O)ccc32)c2ccc(C(=O)*)cc21; TQ2 = quencher

Target: T1, MMP14 in the MDA-MB-231-derived extracellular vesicles (Homo sapiens, UniProt P50281)
T1 construct: in terms of intact MMP14 with a molecular weight of 70 kDa
Assay: Digital detection of MDA-MB-231-derived extracellular vesicles through MMP14 activity in liquid droplets
Type: biochemical
Description: The concentration of the solution is 5 μg/mL.
Liquid droplets were prepared by a pumping method of an SPG emulsification membrane through use of the reaction solution for forming liquid droplets prepared in the foregoing. A dispersed phase and a continuous phase are shown below.
An SPG pumping connector (pore diameter: 10 μm, pore diameter: 5 μm, manufactured by SPG Technology Co., Ltd.) was used as the SPG emulsification membrane, and the number of times of pumping reciprocations was set to 10. Thus, liquid droplets each having a diameter of from about 1 μm to about 10 μm were obtained.
The emulsified liquid prepared in the foregoing were subjected to a reaction through incubation at 37° C. to promote the generation of fluorescence.
Next, the images acquired with an SPG pumping connector with a pore diameter of 10 μm were analyzed in the same manner as in Example 19. The above-mentioned fluorescence microscope images after 4 hours of reaction were subjected to predetermined image processing to provide a particle diameter distribution of the liquid droplets shown in FIG. 67, and obtain a histogram representing the number of liquid droplets each showing a fluorescence intensity included in each fraction of fluorescence intensity obtained by dividing fluorescence intensities into intervals of a constant value in each particle diameter range.
Further, when the concentration of the extracellular vesicles having MMP14 activity was calculated through use of the above-mentioned equation (1) from the total number of liquid droplets in each particle diameter range and the number of positive liquid droplets identified from the histogram, the concentration was able to be estimated as described below.

[1] = Example 32, 4 h, droplet diameter 3-4 μm
[2] = Example 32, 4 h, droplet diameter 4-5 μm
[3] = Example 32, 4 h, droplet diameter 5-6 μm
[4] = Example 32, 4 h, droplet diameter 6-7 μm
[5] = Example 32, 4 h, droplet diameter 7-8 μm
[6] = Example 32, 4 h, droplet diameter <3 μm
[7] = Example 32, 4 h, droplet diameter >8 μm

## [5-FAM]GRIGFLRTAK(TQ2)[OH] (5FAM-GRIGFLRTAK(TQ2)-OH) [Custom #1]
Example 32
  Extracellular vesicle concentration: 1.9×10^9 /μg of protein
[1]
  Concentration (extracellular vesicles having MMP14 activity): 1.06e+10 mL⁻¹
  Expected value λ: 0.217
  Number of positives: 15
  Positive ratio: 0.195
[2]
  Concentration (extracellular vesicles having MMP14 activity): 9.05e+09 mL⁻¹
  Expected value λ: 0.416
  Number of positives: 16
  Positive ratio: 0.340
[3]
  Concentration (extracellular vesicles having MMP14 activity): 9.85e+09 mL⁻¹
  Expected value λ: 0.816
  Number of positives: 29
  Positive ratio: 0.558
[4]
  Concentration (extracellular vesicles having MMP14 activity): 9.03e+09 mL⁻¹
  Expected value λ: 1.293
  Number of positives: 37
  Positive ratio: 0.725
[5]
  Concentration (extracellular vesicles having MMP14 activity): 9.01e+09 mL⁻¹
  Expected value λ: 1.910
  Number of positives: 23
  Positive ratio: 0.852
[6]
  Concentration (extracellular vesicles having MMP14 activity): 1.04e+10 mL⁻¹
  Expected value λ: 0.047
  Positive ratio: 0.046
[7]
  Concentration (extracellular vesicles having MMP14 activity): 8.68e+09 mL⁻¹
  Expected value λ: 3.296
  Number of positives: 26
  Positive ratio: 0.963
Example 32, SPG pore 10 μm, EV 5 μg/mL, reporter 5 μM, 37° C., 4 h, droplet diameter <3 μm
  Number of positives: 8
Example 32, all droplet diameter ranges, reaction solution 5.0 μg of protein/mL
  average of the extracellular vesicle concentrations: 9.5e+09 mL⁻¹
